The source of these data is PMC8449409 (2021).

This experiment has as its target T1, β-catenin (Mus musculus, UniProt Q02248).
T1 chain: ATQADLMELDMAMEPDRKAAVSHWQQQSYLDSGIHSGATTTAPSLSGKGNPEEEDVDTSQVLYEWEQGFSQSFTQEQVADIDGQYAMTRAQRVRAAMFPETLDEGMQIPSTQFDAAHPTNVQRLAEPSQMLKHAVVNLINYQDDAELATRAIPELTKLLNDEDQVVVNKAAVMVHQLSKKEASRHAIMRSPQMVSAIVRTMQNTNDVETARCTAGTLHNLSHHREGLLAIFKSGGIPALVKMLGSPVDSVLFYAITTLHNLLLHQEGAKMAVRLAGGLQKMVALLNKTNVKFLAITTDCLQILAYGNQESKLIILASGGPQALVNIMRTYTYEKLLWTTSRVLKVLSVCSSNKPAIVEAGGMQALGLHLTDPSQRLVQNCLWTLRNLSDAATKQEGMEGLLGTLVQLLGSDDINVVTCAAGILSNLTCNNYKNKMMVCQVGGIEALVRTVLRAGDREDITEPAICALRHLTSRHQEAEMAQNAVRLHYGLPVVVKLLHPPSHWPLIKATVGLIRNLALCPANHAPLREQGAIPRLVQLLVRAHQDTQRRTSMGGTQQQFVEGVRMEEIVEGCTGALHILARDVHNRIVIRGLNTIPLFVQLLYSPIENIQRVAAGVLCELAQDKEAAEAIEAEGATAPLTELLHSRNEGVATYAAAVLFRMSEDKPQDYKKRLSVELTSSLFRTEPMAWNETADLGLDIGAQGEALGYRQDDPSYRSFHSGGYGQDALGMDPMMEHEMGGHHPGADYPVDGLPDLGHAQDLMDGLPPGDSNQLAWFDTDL

In turn, DPTAPPYDSLLVFDYEGSGS [E-cadherin core-binding peptide core-binding region (20 aa)] registered a Kd greater than 1000 nM.

By Kd is commonly meant the free concentration of one partner at which half of the binding sites on the other are occupied at equilibrium, for simple one-to-one binding.
